Key:
[1] = biological target: low density lipoprotein receptor-related protein/a2-macroglobulin receptor (LRP) on rat hepatoma MH1 C1 cells (rat)
[2] = biological target: low density lipoprotein receptor-related protein/a2-macroglobulin receptor (LRP) on rat hepatoma MH1 C1 cells (rat); remark: listed apart in the source
[3] = biological target: human low density lipoprotein receptor-related protein (LRP) on human hepatoma HepG2 cells (human) (UniProt Q07954)
[4] = biological target: TFPI binding sites on rat hepatoma MH1 C1 cells (receptor not identified); experiment: binding of ^125 I-TFPI to MH1 C1 cell monolayers at 4° C. (saturation with Scatchard analysis, and competition by unlabelled TFPI)

degradation of pre-bound ^125 I-TFPI in a single cycle of endocytosis in MH1 C1 cells [1] [%] | inhibition of ^125 I-TFPI degradation (trichloroacetic acid-soluble radioactivity) by MH1 C1 cells, 4 h at 37° C. [2] [%] | degradation of pre-bound ^125 I-TFPI by HepG2 cells (single cycle endocytosis assay) [3] [%] | Kd [4] [µM] | functional activity (stoichiometric inhibition of factor Xa) (factor Xa) [%] | Substance
80 | 80 | 65 |  |  | receptor-associated protein (RAP), 39-kDa protein, full-length (1-319) (ligand)
 |  |  | 0.03 | 88 | recombinant human full-length tissue factor pathway inhibitor (TFPI) (from UniProt P10646) (ligand)
